Test [1] addresses T1, actin filaments (F-actin) polymerised from rabbit muscle actin (rabbit, UniProt P68135 1-377). Description: single-molecule TIRF binding kinetics (on-rate); tethered actin filaments; frequency of binding events for a range of concentrations of actin-binding domain, linear regression of frequency against concentration. As to conditions: both partners purified.
In test [2] the target is T1, actin filaments (F-actin) polymerised …. Description: single-molecule TIRF binding kinetics (dwell times); actin filaments tethered to a PEG/biotin-PEG coverslip by streptavidin and biotin-phalloidin; labelled binding domain in solution at ~0.05–0.1 nM; 25 mM imidazole, 25 mM KCl, 4 mM MgCl2, 1 mM EGTA, 1 mM DTT, pH 7.4, 10 µg/mL beta casein; double exponential fit of the CDF, bleaching corrected. Particulars: both partners purified.

B1: actin-binding domain of human utrophin (CH1–CH2, AA 1–261) (domain or fragment)
chain: MAKYGEHEASPDNGQNEFSDIIKSRSDEHNDVQKKTFTKWINARFSKSGKPPINDMFTDLKDGRKLLDLLEGLTGTSLPKERGSTRVHALNNVNRVLQVLHQNNVELVNIGGTDIVDGNHKLTLGLLWSIILHWQVKDVMKDVMSDLQQTNSEKILLSWVRQTTRPYSQVNVLNFTTSWTDGLAFNAVLHRHKPDLFSWDKVVKMSPIERLEHAFSKAQTYLGIEKLLDPEDVAVQLPDKKSIIMYLTSLFEVLPQQVTIDGGSGKCKSA
modifications: maleimide dye on the C-terminal KCK linker (Alexa-488 C5, Alexa-555 C2 or Alexa-647 C2 maleimide; Alexa-555 named as the dye of the dwell-time experiments)
notes: KCK linker on the C terminus for maleimide labelling; both cleaved by TEV; also called utrnWT; utrn ABD; source: E. coli BL21 (DE3) pLysS, purified (IMAC, TEV cleavage, size exclusion chromatography); not shown: His10, N-terminal, cleaved; z-tag, N-terminal, cleaved
What is called kon is a measure of how fast the partners come together. A low value points to slower complex formation. With B1, the kon in test [1] is 2.2e+06 ± 300000 M⁻¹ s⁻¹. For the same molecule, in test [2], the “average dwell time (τav)” value was ~1.1 s and the “ratio of the two dwell-time scales (τ2/τ1)” value stood at 18.3.

B2: utrophin actin-binding domain Q33A T36A G125A L132A (domain or fragment)
chain: MAKYGEHEASPDNGQNEFSDIIKSRSDEHNDVAKKAFTKWINARFSKSGKPPINDMFTDLKDGRKLLDLLEGLTGTSLPKERGSTRVHALNNVNRVLQVLHQNNVELVNIGGTDIVDGNHKLTLALLWSIIAHWQVKDVMKDVMSDLQQTNSEKILLSWVRQTTRPYSQVNVLNFTTSWTDGLAFNAVLHRHKPDLFSWDKVVKMSPIERLEHAFSKAQTYLGIEKLLDPEDVAVQLPDKKSIIMYLTSLFEVLPQQVTIDGGSGKCKSA
modifications: maleimide dye on the C-terminal KCK linker (Alexa-488 C5, Alexa-555 C2 or Alexa-647 C2 maleimide; Alexa-555 named as the dye of the dwell-time experiments)
notes: KCK linker on the C terminus for maleimide labelling; also called utrnSF; source: E. coli BL21 (DE3) pLysS, purified (IMAC, TEV cleavage, size exclusion chromatography); not shown: His10, N-terminal, cleaved; z-tag, N-terminal, cleaved
As to B2, the kon in test [1] came to 5e+06 ± 2e+06 M⁻¹ s⁻¹. In addition, the “average dwell time (τav)” value in test [2] was ~4.6 s.

B3: utrophin actin-binding domain Q33A T36A K121A (domain or fragment)
chain: MAKYGEHEASPDNGQNEFSDIIKSRSDEHNDVAKKAFTKWINARFSKSGKPPINDMFTDLKDGRKLLDLLEGLTGTSLPKERGSTRVHALNNVNRVLQVLHQNNVELVNIGGTDIVDGNHALTLGLLWSIILHWQVKDVMKDVMSDLQQTNSEKILLSWVRQTTRPYSQVNVLNFTTSWTDGLAFNAVLHRHKPDLFSWDKVVKMSPIERLEHAFSKAQTYLGIEKLLDPEDVAVQLPDKKSIIMYLTSLFEVLPQQVTIDGGSGKCKSA
modifications: maleimide dye on the C-terminal KCK linker (Alexa-488 C5, Alexa-555 C2 or Alexa-647 C2 maleimide; Alexa-555 named as the dye of the dwell-time experiments)
notes: KCK linker on the C terminus for maleimide labelling; also called utrnLAM; source: E. coli BL21 (DE3) pLysS, purified (IMAC, TEV cleavage, size exclusion chromatography); not shown: His10, N-terminal, cleaved; z-tag, N-terminal, cleaved
Consider B3, for which the kon in test [1] came to 2.4e+06 ± 300000 M⁻¹ s⁻¹. In addition, in test [2], the “average dwell time (τav)” value is ~1.3 s and the “ratio of the two dwell-time scales (τ2/τ1)” value was determined as 9.6.

Source of the values: PMC7688639, “Biased localization of actin binding proteins by actin filament conformation” (Nature Communications, 2020).
